According to US8685665 (CHEMO SERO THERAPEUTIC RESEARCH INSTITUTE, dated 2014):
Positions count from the first letter of the chain named. Numbers in names are those of the source.

T1: FRETS-VWF73, P04275
T1 chain: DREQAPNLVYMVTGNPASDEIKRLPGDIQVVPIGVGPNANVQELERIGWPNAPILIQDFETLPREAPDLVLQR

B1: ADAMTS-13W688X mutant D343A (enzyme, human, UniProt Q76LX8 75-688, looked up)
chain: AAGGILHLELLVAVGPDVFQAHQEDTERYVLTNLNIGAELLRDPSLGAQFRVHLVKMVILTEPEGAPNITANLTSSLLSVCGWSQTINPEDDTDPGHADLVLYITRFDLELPDGNRQVRGVTQLGGACSPTWSCLITEDTGFDLGVTIAHEIGHSFGLEHDGAPGSGCGPSGHVMASDGAAPRAGLAWSPCSRRQLLSLLSAGRARCVWDPPRPQPGSAGHPPDAQPGLYYSANEQCRVAFGPKAVACTFAREHLDMCQALSCHTDPLAQSSCSRLLVPLLDGTECGVEKWCSKGRCRSLVELTPIAAVHGRWSSWGPRSPCSRSCGGGVVTRRRQCNNPRPAFGGRACVGADLQAEMCNTQACEKTQLEFMSQQCARTDGQPLRSSPGGASFYHWGAAVPHSQGDALCRHMCRAIGESFIMKRGDSFLDGTRCMPSGPREDGTLSLCVSGSCRTFGCDGRMDSQQVWDRCQVCGGDNSTCSPRKGSFTAGRAREYVTFLTVTPNLTSVYIANHRPLFTHLAVRIGGRYVVAGKMSISPNTTYPSLLEDGRVEYRVALTEDRLPRLEEIRIWGPLQEDADIQVYRRYGEEYGNLTRPDITFTYFQPKPRQAWVW
notes: Disintegrin-like domain mutant; also called D343(10); not shown: C-terminal FLAG tag
B2: ADAMTS-13W688X mutant R659A (protein)
chain: B1 chain with A269D, R585A
B3: ADAMTS-13W688X mutant E634A (protein)
chain: B1 chain with A269D, E560A
B4: ADAMTS-13W688X mutant R568A (protein)
chain: B1 chain with A269D, R494A
B5: ADAMTS-13W688X mutant D635A (protein)
chain: B1 chain with A269D, D561A
B6: ADAMTS-13W688X mutant R370A (protein)
chain: B1 chain with A269D, R296A
B7: ADAMTS-13W688X mutant R326A (protein)
chain: B1 chain with R252A, A269D
B8: ADAMTS-13W688X mutant D480A (enzyme, human, UniProt Q76LX8 75-688, looked up)
chain: B1 chain with A269D, D406A
notes: Cysteine-rich domain mutant; also called D480(24); not shown: C-terminal FLAG tag
B9: ADAMTS-13W688X mutant E327A (enzyme, human, UniProt Q76LX8 75-688, looked up)
chain: B1 chain with E253A, A269D
notes: Disintegrin-like domain mutant; also called E327(7); E327 mutant; not shown: C-terminal FLAG tag
B10: ADAMTS-13W688X mutant R498A (enzyme, human, UniProt Q76LX8 75-688, looked up)
chain: B1 chain with A269D, R424A
notes: Cysteine-rich domain mutant; also called R498(29); not shown: C-terminal FLAG tag
B11: ADAMTS-13W688X mutant R660A (enzyme, human, UniProt Q76LX8 75-688, looked up)
chain: B1 chain with A269D, R586A
notes: Spacer domain mutant; also called R660(68); not shown: C-terminal FLAG tag
B12: ADAMTS-13W688X mutant R349A (enzyme, human, UniProt Q76LX8 75-688, looked up)
chain: B1 chain with A269D, R275A
notes: Disintegrin-like domain mutant; also called R349(11); not shown: C-terminal FLAG tag
B13: ADAMTS-13W688X mutant R488A (enzyme, human, UniProt Q76LX8 75-688, looked up)
chain: B1 chain with A269D, R414A
notes: Cysteine-rich domain mutant; also called R488(26); not shown: C-terminal FLAG tag

Assays:
[1] = biological target: T2, von Willebrand factor derived from human plasma (human, UniProt P04275 764-2813); experiment: ELISA, plasma VWF immobilized on plate, relative to wild type W688X
T2 construct: mature; also called VWF; natural substrate VWF
Procedure: Each of the purified mutants of Example 3 was evaluated for their binding ability to VWF derived from human plasma immobilized on ELISA plate as described in Non-patent reference 8. The concentration was normalized by sandwich ELISA using the anti-human ADAMTS-13 rabbit polyclonal antibody and an HRP labeled form of the anti-FLAGM2 murine monoclonal antibody (SIGMA CORPORATION) as described above and the VWF binding ability per unit concentration was quantified. Finally, the mutants were evaluated for a relative activity as compared to the specific activity of wild type W688X with no alanine substitution, the specific activity of which is 1.

FRETS-VWF73, P04275 = biological target: T1, FRETS-VWF73, P04275
[2] = biological target: immunoglobulin G (IgG) fractions isolated from acquired TTP patients

Row | Binder | binding result [1] | cleaving activity to FRETS-VWF73, relative activity against wild type W688X (FRETS-VWF73, P04275) | cleaving activity to FRETS-VWF73 per 1 min (ΔFU/min) with and without patient antibodies [2]
1 | B1 | binds |  | 
2 | B2 |  | the elevated enzymatic activity was observed | 
3 | B3 |  |  | depending on patient antibody, K608A, E634A and D635A had a sufficient enzymatic activity
4 | B4 |  | the elevated enzymatic activity was observed | 
5 | B5 |  |  | depending on patient antibody, K608A, E634A and D635A had a sufficient enzymatic activity
6 | B6 |  | the elevated enzymatic activity was observed | 
7 | B7 |  | the elevated enzymatic activity was observed | 
8 | B8 | binds |  | 
9 | B9 | binds |  | 
10 | B10 | binds | led to the significantly reduced enzyme activity | 
11 | B11 | binds |  | 
12 | B12 | binds | led to the significantly reduced enzyme activity | 
13 | B13 | binds |  | 
